Measured values published in publication PMC5084272.
Several values for one entry are separate records, joined by “and”; a condition that tells them apart may be missing. Equal entries are not always repeated.

Biological target: EGFP-labeled Kif15 (EGFP-Kif15) (human)
Assay: single-molecule fluorescence intensity and photobleaching steps

EGFP-labeled Kif15 (EGFP-Kif15) (natural protein)
stoichiometry N: 2 and > 2
